{"source": "patent US20160202245A1", "about": "(MERZ PHARMA, published 2016)", "binders": {"B1": {"name": "mouse monoclonal antibody 20-2-5 (antibody, V domains shown)", "VH": "EVNLVESGGDLVKPGGSLKLSCAVSGFTFSGYAMSWVRQTPEKRLEWVASIATNGSTYYPDTVKGRFTIFRDNARNILYLQMSSLRSEDTAIYYCTRLRGFDNWGQGTTLTVSS", "VL": "DVLMTQIPLSLPVSLGDQASISCRSSQNIVHSNGNTYLEWYLQKSGQSPKLLIYKVFKRLSGVPDRFSGSGSGTDFTLRISRVEAEDLGVYYCFQGSHVPYTFGGGTKLEIK"}, "B2": {"name": "mouse monoclonal antibody 16-5-4 (antibody, V domains shown)", "VH": "EVKLVESGGDLVKPGGSLKLSCAASGFTFNTYAMSWVRQTPEKRLEWVASISSNGSTYHPESVKGRFTISRDIARNILNLQMSSLRSEDTAIYYCSRLRGFDYWGQGTTLTVSS", "VL": "B1 VL with I7T, N28S, S45P, L51P, L60F, R79K"}, "B3": {"name": "mouse monoclonal antibody 1-10-4 (antibody, V domains shown)", "VH": "EVKLVESGGDLVKPGGSLKLSCAVSGFSLNTYAMSWVRQTPEQRLEWVASISTNGSTYHSDSVKGRFTISRYNARNILYLQMSSLRSEDSAIYYCTRLRGFDYWGQGTTLTVSS", "VL": "B1 VL with V2I, I7T, P12S, S45P, L51P, V56L, F57S, L60F, D75Y, R79K"}, "B4": {"name": "mouse monoclonal antibody 18-3-3 (antibody, V domains shown)", "VH": "EVKLVESGGGLVKPGGSLKLSCAASGFTFRSYAVSWVRQTPEKRLEWVASISTNGSTYYPDSMKGRFTISRDTARNILYLEMNSLRSEDTAMYYCARLRGFDYWGQGTPLTVSS", "VL": "B1 VL with I7T, N28S, S45P, F57S, L60F, R79K, S81T"}, "B5": {"name": "mouse monoclonal antibody 6-3-8 (antibody, V domains shown)", "VH": "EVKLVEFGGGLVEPRGSLKLSCAASGFTFSTYAMSWVRQTPEKRLEWVASIASNGSTYYPDSVRGRFTISRDNARNILYLQMSSLRSEDTAMYYCSRLRGFDYWGQGSTLTVSS", "VL": "B1 VL with N28S, S45P, K50S, D75E, R79K, S81N"}, "B6": {"name": "mouse monoclonal antibody 14-12-1 (antibody, V domains shown)", "VH": "EVKLVESGGDLVKPGGSLKLSCAASGFTLSDYAMSWVRQSPEERLEWVASISTNGSTYYPDSVKGRFTISRDNARNILSLQMSSLRSEDTAIYYCTRLRGFDNWGQGTLLTVSS", "VL": "B1 VL with I7T, I53M, F57S, S70R, R79K"}, "B7": {"name": "mouse monoclonal antibody 5-10-5 (antibody, V domains shown)", "VH": "DVQLQESGPGLVKPSQSLSLTCTVTGFSITSDYAWNWIRQFPGNKLEWMGYISYKYGTRYNPSLKGRISITRDTSKNQFFLQLNSLTTEDTAIYYCARRGTDGYGFAYWGQGTLVTVSA", "VL": "DIVLTQSPASLGVSLGQRATISCRASESVSSSGYSYIHWYQQRPGQPPKLLIFLASNLESGVPARFSGSGSGTDFTLNIHPVEEEDAATYYCQHSRELPLTFGAGTKLELK"}}, "note": "Residue numbers refer to the chain shown, from its start."}
{"molecular_target": "T1, non-cleaved SNAP-25206 (UniProt P60880 1-206)", "T1 construct": "range 1-206", "assay": "ELISA and Western blots"}
{"binder": "B1", "binding result": "no binding"}
{"binder": "B2", "binding result": "no binding"}
{"binder": "B3", "binding result": "no binding"}
{"binder": "B4", "binding result": "no binding"}
{"binder": "B5", "binding result": "no binding"}
{"binder": "B6", "binding result": "no binding"}
{"binder": "B7", "binding result": "no binding"}
